{"source": "patent US20060041106A1", "molecular_target": "Fas/Apo-1 receptor (human) (UniProt P25445)", "sequence (P25445 26-335)": "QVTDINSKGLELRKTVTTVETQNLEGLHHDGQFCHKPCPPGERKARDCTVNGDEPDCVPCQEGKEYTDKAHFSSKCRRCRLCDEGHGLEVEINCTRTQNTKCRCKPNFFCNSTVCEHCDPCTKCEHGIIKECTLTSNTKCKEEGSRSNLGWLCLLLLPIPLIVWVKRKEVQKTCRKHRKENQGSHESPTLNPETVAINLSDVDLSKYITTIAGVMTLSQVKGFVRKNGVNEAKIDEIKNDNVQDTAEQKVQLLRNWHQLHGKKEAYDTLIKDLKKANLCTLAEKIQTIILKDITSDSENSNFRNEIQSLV", "assay": "cell-based or functional assay"}
{"substance": "anti-Apo-1 monoclonal antibody, CH11", "values": [{"measurement": "% apoptotic cells, 9D cells, CH11 1 ug/ml, 24 h (control 22.5)", "result": 90.8, "unit": "%"}, {"measurement": "% apoptotic cells, Jurkat cells, CH11 1 ug/ml, 24 h (control 5.9)", "result": 18.1, "unit": "%"}, {"measurement": "% apoptotic cells, Raji cells, CH11 1 ug/ml, 24 h (control 35.9)", "result": 83.7, "unit": "%"}]}
